The target of assay [1] is FLAG-tagged Ragulator (UniProt Q6IAA8 1-161; Q9UHA4 1-124; Q9Y2Q5 1-125; O43504 1-91; Q0VGL1 1-99, G2A). The assay can be described thus: pull-down.
The target in assay [2] is HA-GST-tagged Ragulator (UniProt Q9Y2Q5 1-125; Q9UHA4 1-124; Q6IAA8 1-161; O43504 1-91; Q0VGL1 1-99, G2A). Nature of the assay: pull-down.

B1: FLAG-tagged c17orf59 (natural protein)
chain: MESSRGRPGPETDLLAVAEHQALVFGGGPGRTSSEPPAGLRVSGEEETENVGGANRHPRTSPKTSSCGVVHRPEREALENEPGPQGTLSGAGSRRGAPGAEHEPSLSSRHKNPAPPEGKPSSGRDCRRGGPGGGMDVEQQEEEDNDEEAAAGSRAGRSFSSRLQDSRSLDGLSEACGGAGSSGSAESGAGGGRRATISSPLELEGTVSRHGDLTHFVANNLQLKIRLSGAPPPPPSAPARPCPAPAPTPTPAIPPIDPEVLRDLERLSRELGGRVDRLLRGLGGAVQELTALSVGCIQTYRDAVDSLGEAVDMSIKGMYTLLARCEELERALQPVQGLARQVRDIRRTLEVLEALCK
Regarding B1, the binding result in assay [1] and in assay [2] was “binds” in each case.

For the origin of these results see article PMC4570232 (Cell reports, 2015).
